Results: patent publication US9187525B2, “Methods of treating ophthalmic diseases using NPR-B agonists” (Shire Orphan Therapies GmbH, dated 2015)
Numbered stars: 1 amine (or outer) side, 2 acyl side, 3 side chain; on linkers, the order of the positions; unused ones are H or OH. Square brackets hold non-standard residues; d marks the D form. Ends that are not written are not given here. * marks the point of attachment. ctb = (S)-2-amino-3-(tert-butylthio)propanoic acid, CC(C)(C)SC[C@@H](N[*:1])C(=O)[*:2]; Ebe = (R)-2-amino-3-(methylsulfanyl)propanoic acid, CSC[C@H](N[*:1])C(=O)[*:2]; Sni = (S)-nipecotic acid, O=C([C@H]1CCCN([*:1])C1)[*:2]; Phe(3-CF3) = N[C@@H](Cc1cccc(C(F)(F)F)c1)C(=O)O; Phe(4-Cl) = N[C@@H](Cc1ccc(Cl)cc1)C(=O)O; Phe(3-Me) = Cc1cccc(C[C@H](N)C(=O)O)c1; Hyp = O=C(O)[C@@H]1C[C@@H](O)CN1; NMeF = CN[C@@H](Cc1ccccc1)C(=O)O; dAoc(2) = CCCCCC[C@@H](N)C(=O)O; 2Thi = N[C@@H](Cc1cccs1)C(=O)O; 3Thi = N[C@@H](Cc1ccsc1)C(=O)O; Aoc(2) = CCCCCC[C@H](N)C(=O)O; NMeL = CN[C@@H](CC(C)C)C(=O)O; Tle = CC(C)(C)[C@H](N)C(=O)O; hLeu = CC(C)CC[C@H](N)C(=O)O; dNle = CCCC[C@@H](N)C(=O)O; dNva = CCC[C@@H](N)C(=O)O; hSer = N[C@@H](CCO)C(=O)O; Octanoyl = CCCCCCCC(=O)*; dAbu = CC[C@@H](N)C(=O)O; dDap = NC[C@@H](N)C(=O)O; Nva = CCC[C@H](N)C(=O)O; Hexanoyl = CCCCCC(=O)*; asn = not defined here; leu = not defined here; nle = not defined here; Occ = octanoic acid

T1: natriuretic peptide receptor-B (human)
T1 chain: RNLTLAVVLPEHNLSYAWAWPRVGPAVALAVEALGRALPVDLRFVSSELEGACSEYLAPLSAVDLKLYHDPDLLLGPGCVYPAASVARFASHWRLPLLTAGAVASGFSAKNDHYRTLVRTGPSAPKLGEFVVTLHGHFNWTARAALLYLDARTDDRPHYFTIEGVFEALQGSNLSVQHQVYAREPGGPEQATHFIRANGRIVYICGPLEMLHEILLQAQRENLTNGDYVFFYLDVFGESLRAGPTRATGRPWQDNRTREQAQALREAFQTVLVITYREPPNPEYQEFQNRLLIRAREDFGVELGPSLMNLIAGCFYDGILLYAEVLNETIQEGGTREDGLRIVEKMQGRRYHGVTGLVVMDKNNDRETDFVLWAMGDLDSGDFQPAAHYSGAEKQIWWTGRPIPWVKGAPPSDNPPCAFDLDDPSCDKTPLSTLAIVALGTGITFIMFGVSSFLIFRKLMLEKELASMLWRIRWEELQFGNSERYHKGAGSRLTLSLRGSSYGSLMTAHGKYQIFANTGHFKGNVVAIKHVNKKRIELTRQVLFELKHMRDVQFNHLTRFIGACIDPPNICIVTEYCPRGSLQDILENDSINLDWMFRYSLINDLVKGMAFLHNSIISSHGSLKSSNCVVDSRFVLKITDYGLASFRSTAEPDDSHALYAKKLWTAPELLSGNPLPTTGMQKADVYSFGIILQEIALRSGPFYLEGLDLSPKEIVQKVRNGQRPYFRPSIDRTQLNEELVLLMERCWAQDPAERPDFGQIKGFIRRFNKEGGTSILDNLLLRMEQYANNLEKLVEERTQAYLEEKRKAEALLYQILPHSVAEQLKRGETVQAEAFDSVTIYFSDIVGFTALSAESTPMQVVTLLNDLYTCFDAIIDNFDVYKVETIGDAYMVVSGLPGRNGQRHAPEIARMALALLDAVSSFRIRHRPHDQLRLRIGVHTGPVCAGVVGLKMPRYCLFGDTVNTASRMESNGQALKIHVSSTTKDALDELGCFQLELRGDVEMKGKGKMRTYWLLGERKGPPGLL


Target: T1, natriuretic peptide receptor-B
Assay: cell-based or functional assay

Binder | EC50 group, cGMP in GTM-3 cells [µM]
[Occ]A[Phe(3-Me)]GLPLDRI-NH2 (not fully specified (residue 2); printed as Occ-ala-Mmf-Gly-Leu-Pro-Leu-Asp-Arg-Ile-NH2) [JAL-1006] | ≤ 15
Octanoyl-[dA]F[dM]LPLDRI-NH2 [JAL-1018] | ≤ 5
Octanoyl-[Sni]F[dNle]LPLDRI-NH2 [JAL-1021] | ≤ 5
[Occ][Sni]FGL[Hyp][NMeL]DRI-NH2 [JAL-1015] | ≤ 5
[Occ]AFGL[Hyp][NMeL]DRI-NH2 (not fully specified (residue 2); printed as Occ-ala-Phe-Gly-Leu-Hyp-Nml-Asp-Arg-Ile-) [JAL-1016] | ≤ 5
[Occ]AFG[hLeu]PLDRI-NH2 (not fully specified (residue 2); printed as Occ-ala-Phe-Gly-Hle-Pro-Leu-Asp-Arg-Ile-NH2) [JAL-0998] | ≤ 15
[Occ]AFGLPL[hSer]RI-NH2 (not fully specified (residue 2); printed as Occ-ala-Phe-Gly-Leu-Pro-Leu-Hse-Arg-Ile-NH2) [JAL-0993] | ≤ 15
[Occ]AF[asn]LPLDRI-NH2 (not fully specified (residue 2); printed as Occ-ala-Phe-asn-Leu-Pro-Leu-Asp-Arg-Ile-NH2; reading uncertain) [JAL-1017] | ≤ 5
[Occ]AFG[Nva]PLDRI-NH2 (not fully specified (residue 2); printed as Occ-ala-Phe-Gly-Nva-Pro-Leu-Asp-Arg-Ile-NH2) [JAL-0996] | ≤ 15
Hexanoyl-[Ebe][dP]FGLKIDRIS[Ebe]-NH2 [JAL-0534] | ≤ 15
Octanoyl-[dA]F[dAbu]LPLDRI-NH2 [JAL-1019] | ≤ 5
[Occ]A[Phe(3-CF3)]GLPLDRI-NH2 (not fully specified (residue 2); printed as Occ-ala-Mtf-Gly-Leu-Pro-Leu-Asp-Arg-Ile-NH2) [JAL-1005] | ≤ 15
[Occ]AFTLPLDRI-NH2 (not fully specified (residues 2, 4); printed as Occ-ala-Phe-thr-Leu-Pro-Leu-Asp-Arg-Ile-NH2) [JAL-1011] | ≤ 5
Octanoyl-[dA]F[dH]LPLDRI-NH2 [JAL-1032] | ≤ 5
[Occ]A[Phe(4-Cl)]GLPLDRI-NH2 (not fully specified (residue 2); printed as Occ-ala-Pcf-Gly-Leu-Pro-Leu-Asp-Arg-Ile-NH2) [JAL-1002] | ≤ 15
Octanoyl-[dA]F[dL]L[Hyp]LDRI-NH2 [JAL-1026] | ≤ 5
[Occ]AF[nle]LPLDRI-NH2 (not fully specified (residue 2); printed as Occ-ala-Phe-nle-Leu-Pro-Leu-Asp-Arg-Ile-NH2; reading uncertain) [JAL-1014] | ≤ 5
Octanoyl-[Sni]F[dNle]L[Hyp]LDRI-NH2 [JAL-1024] | ≤ 1
[Occ]A[3Thi]GLPLDRI-NH2 (not fully specified (residue 2); printed as Occ-ala-Thk-Gly-Leu-Pro-Leu-Asp-Arg-Ile-NH2) [JAL-1003] | ≤ 15

Binder | EC50 group, cGMP in GTM-3 cells [µM]
Ac-[dAoc(2)][dA][dA]FGLPLDRI-NH2 [JAL-1034] | ≤ 5
Hexanoyl-A[dA]FGLKLDRISA-NH2 [JAL-0536] | ≤ 5
[Occ]AF[leu]LPLDRI-NH2 (not fully specified (residue 2); printed as Occ-ala-Phe-leu-Leu-Pro-Leu-Asp-Arg-Ile-NH2; reading uncertain) [JAL-1013] | ≤ 5
Octanoyl-[dA]F[dF]L[Hyp]LDRI-NH2 [JAL-1028] | ≤ 5
Ac-[Aoc(2)][dA][dA]FGLPLDRI-NH2 [JAL-1033] | ≤ 5
[Occ]A[2Thi]GLPLDRI-NH2 (not fully specified (residue 2); printed as Occ-ala-Thi-Gly-Leu-Pro-Leu-Asp-Arg-Ile-NH2) [JAL-1000] | ≤ 15
[Occ]AFVLPLDRI-NH2 (not fully specified (residues 2, 4); printed as Occ-ala-Phe-val-Leu-Pro-Leu-Asp-Arg-Ile-NH2) [JAL-1012] | ≤ 15
Octanoyl-[dA]F[dR]LPLDRI-NH2 [JAL-1031] | ≤ 5
Hexanoyl-S[dA]FGLKLDRISS-NH2 [JAL-0535] | ≤ 15
[Occ]AFSLPLDRI-NH2 (not fully specified (residues 2, 4); printed as Occ-ala-Phe-ser-Leu-Pro-Leu-Asp-Arg-Ile-NH2) [JAL-1010] | ≤ 5
[Occ]AFGIPLDRI-NH2 (not fully specified (residue 2); printed as Occ-ala-Phe-Gly-Ile-Pro-Leu-Asp-Arg-Ile-NH2) [JAL-0995] | ≤ 15
Octanoyl-[dA]F[dDap]LPLDRI-NH2 [JAL-1020] | ≤ 5
Octanoyl-[dA]F[ctb]L[Hyp]LDRI-NH2 [JAL-1029] | ≤ 5
Octanoyl-[dA]F[dNva]L[Hyp]LDRI-NH2 [JAL-1027] | ≤ 5
Octanoyl-[Sni][NMeF][dNle]LPLDRI-NH2 [JAL-1022] | ≤ 5
Octanoyl-[dA]F[dNle]L[Hyp]LDRI-NH2 [JAL-1025] | ≤ 5
Octanoyl-[dA]F[dK]LPLDRI-NH2 [JAL-1030] | ≤ 5
[Occ]AFGLPLDR[Tle]-NH2 (not fully specified (residue 2); printed as Occ-ala-Phe-Gly-Leu-Pro-Leu-Asp-Arg-Tbg-) [JAL-0989] | ≤ 15
[Occ]AFGLPLSRI-NH2 (not fully specified (residue 2); printed as Occ-ala-Phe-Gly-Leu-Pro-Leu-Ser-Arg-Ile-NH2) [JAL-0992] | ≤ 15
